Source: US20160280748

Legend:
[1] = test system: +36 GFP-(GGS)4-ALAL-(GGS)4-Cre-His6
[2] = test system: +36 GFP-(GGS)4-ALAL-(GGS)4-mCherry-His6
+36 GFP-(GGS)4-ALAL-(GGS)4-mCherry-His6, sequence (chain, as listed by the source): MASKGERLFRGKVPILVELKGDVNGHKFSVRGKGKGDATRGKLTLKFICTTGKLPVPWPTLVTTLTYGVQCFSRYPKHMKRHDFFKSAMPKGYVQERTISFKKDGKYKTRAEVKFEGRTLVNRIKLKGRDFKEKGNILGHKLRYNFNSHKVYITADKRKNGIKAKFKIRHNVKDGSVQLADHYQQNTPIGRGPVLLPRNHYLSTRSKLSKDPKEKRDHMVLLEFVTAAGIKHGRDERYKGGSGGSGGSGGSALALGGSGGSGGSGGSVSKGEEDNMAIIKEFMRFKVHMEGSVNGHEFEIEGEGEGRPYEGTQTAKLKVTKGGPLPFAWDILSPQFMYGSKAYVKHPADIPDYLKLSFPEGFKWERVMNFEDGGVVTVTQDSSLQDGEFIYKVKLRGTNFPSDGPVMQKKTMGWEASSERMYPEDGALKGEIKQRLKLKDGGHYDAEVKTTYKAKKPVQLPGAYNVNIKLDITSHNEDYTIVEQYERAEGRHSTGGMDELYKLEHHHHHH

+36 GFP-(GGS)4-ALAL-(GGS)4-Cre-His6, sequence (chain, as listed by the source): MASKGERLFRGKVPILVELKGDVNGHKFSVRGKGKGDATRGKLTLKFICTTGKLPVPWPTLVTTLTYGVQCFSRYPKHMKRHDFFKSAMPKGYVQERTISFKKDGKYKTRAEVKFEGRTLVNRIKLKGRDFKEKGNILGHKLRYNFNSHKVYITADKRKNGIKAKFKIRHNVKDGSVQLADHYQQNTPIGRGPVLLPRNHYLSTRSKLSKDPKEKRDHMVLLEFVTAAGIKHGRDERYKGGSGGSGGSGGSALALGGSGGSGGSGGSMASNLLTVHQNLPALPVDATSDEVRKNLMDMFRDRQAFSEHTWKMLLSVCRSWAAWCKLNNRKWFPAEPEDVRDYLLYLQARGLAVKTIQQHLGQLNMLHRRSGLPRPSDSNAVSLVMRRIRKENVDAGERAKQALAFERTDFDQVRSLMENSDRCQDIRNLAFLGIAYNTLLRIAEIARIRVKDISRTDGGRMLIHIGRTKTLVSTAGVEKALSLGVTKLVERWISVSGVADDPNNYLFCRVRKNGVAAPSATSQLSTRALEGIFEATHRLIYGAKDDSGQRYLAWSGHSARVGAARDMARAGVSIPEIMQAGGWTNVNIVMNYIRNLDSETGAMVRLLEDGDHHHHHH

## cathepsin B from human liver (Sigma)
[1]
  cleavage of the fusion protein in vitro (gel): the +36 GFP-Cre fusion was indeed cleaved into two protein fragments with lengths consistent with separated +36 GFP and Cre
[2]
  cleavage of the fusion protein in vitro (gel): Cleavage of +36 GFP-mCherry fusion. ... lane 4: +36 GFP-mCherry fusion after treatment with 500 ng cathepsin B for 45 min at 37 °C
